T1: α-sarcoglycan, recombinant human, 35S-labelled, in vitro transcribed and translated (human, UniProt Q16586 1-387, limits assumed, 35S label; not glycosylated)
T1 construct: also called alpha-sarcoglycan
T1 sequence (looked up): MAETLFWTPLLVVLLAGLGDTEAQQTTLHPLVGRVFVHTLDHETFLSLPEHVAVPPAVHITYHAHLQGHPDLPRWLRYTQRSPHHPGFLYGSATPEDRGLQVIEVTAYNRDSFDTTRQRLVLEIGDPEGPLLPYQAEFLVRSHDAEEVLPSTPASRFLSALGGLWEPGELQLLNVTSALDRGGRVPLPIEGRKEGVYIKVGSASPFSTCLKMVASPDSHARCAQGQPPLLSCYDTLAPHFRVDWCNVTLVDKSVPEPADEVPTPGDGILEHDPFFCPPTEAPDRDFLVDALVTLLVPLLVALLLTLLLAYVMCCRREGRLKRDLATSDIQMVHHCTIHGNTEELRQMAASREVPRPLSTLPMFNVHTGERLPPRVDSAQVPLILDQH

B1: decorin proteoglycan (core and side chains), recombinant, vaccinia system (other, UniProt P07585 31-359, looked up)
chain: DEASGIGPEVPDDRDFEPSLGPVCPFRCQCHLRVVQCSDLGLDKVPKDLPPDTTLLDLQNNKITEIKDGDFKNLKNLHALILVNNKISKVSPGAFTPLVKLERLYLSKNQLKELPEKMPKTLQELRAHENEITKVRKVTFNGLNQMIVIELGTNPLKSSGIENGAFQGMKKLSYIRIADTNITSIPQGLPPSLTELHLDGNKISRVDAASLKGLNNLAKLGLSFNSISAVDNGSLANTPHLRELHLDNNKLTRVPGGLAEHKYIQVVYLHNNNISVVGSSDFCPPGHNTKKASYSGVSLFSNPVQYWEIQPSTFRCVYVRSAIQLGNYK
modifications: glycosaminoglycan side chain
notes: also called DEC-PG; DECPG
B2: decorin core (no side chains), recombinant, vaccinia system (other, UniProt P07585 31-359, looked up)
chain: B1 chain
B3: γ-sarcoglycan, recombinant human, 35S-labelled, in vitro transcribed and translated (other, UniProt Q13326 1-291, looked up)
chain: MVREQYTTATEGICIERPENQYVYKIGIYGWRKRCLYLFVLLLLIILVVNLALTIWILKVMWFSPAGMGHLCVTKDGLRLEGESEFLFPLYAKEIHSRVDSSLLLQSTQNVTVNARNSEGEVTGRLKVGPKMVEVQNQQFQINSNDGKPLFTVDEKEVVVGTDKLRVTGPEGALFEHSVETPLVRADPFQDLRLESPTRSLSMDAPRGVHIQAHAGKIEALSQMDILFHSSDGMLVLDAETVCLPKLVQGTWGPSGSSQSLYEICVCPDGKLYLSVAGVSTTCQEHNHICL
modifications: 35S label; not glycosylated
notes: also called gamma-sarcoglycan

Key:
Assay in all cases: overlay assay with 35S in vitro translated sarcoglycan
[1] = molecular target: T1, α-sarcoglycan, recombinant human, …
[2] = molecular target: B1
[3] = molecular target: B2

| Binder | binding result [1] | binding result [2] | binding result [3] |
| --- | --- | --- | --- |
| B1 | no binding | – | – |
| B2 | no binding | – | – |
| B3 | – | no binding | no binding |
